# From patent publication US20240101668A1 (WUGEN, published 2024)
# Where a chain is given by its changes, count along the chain named.
# B1: Polypeptide No. 243 (scFv, V domains shown)
# VH: QVQLVQSGAEVKKPGSSVKVSCKASGGTFSSHAFNWVRQAPGQGLEWMGGISPMFGTPNYAQKFQGRVTITADESTSTAYMELSSLRSEDTAVYYCARAPDYGDDWYFDLWGRGTLVTVSS
# VL: EIVMTQSPATLSVSPGERATLSCRASQTLTGGLLAWYQQKPGQAPRLLIYDTSSRAAGIPARFSGSGSGTEFTLTISSLQSEDFAVYYCHHYGSSPYTFGQGTKVEIKR
# notes: scFv
# B2: Polypeptide No. 265 (scFv, V domains shown)
# VH: QVQLVQSGAEVKKPGSSVKVSCKASGHTFTSDYMHWVRQAPGQGLEWMGRIIPIFGTADYAQKFQGRVTITADESTSTAYMELSSLRSEDTAVYYCARDDSSGIFDYWGQGTLVTVSS
# VL: B1 VL with T28S, L29V, T30N, G31S, G32E, L33H, A57T, H90Q, H91Q, Y97V
# notes: scFv
# B3: Polypeptide No. 247 (scFv, V domains shown)
# VH: QVQLVQSGAEVKKPGASVKVSCKASGGTLMSYAISWVRQAPGQGLEWMGIINPRGGTTRYAQKFQGRVTMTRDTSTSTVYMELSSLRSEDTAVYYCARSEDSGYDYLDYWGQGTLVTVSS
# VL: EIVMTQSPATLSVSPGERATLSCRGSQSISGNYLAWYQQKPGQAPRLLIYDTSARAAGIPARFSGSGSGTEFTLTISSLQSEDFAVYYCQQYNSYPLTFGGGTKVEIKR
# notes: scFv
# B4: Polypeptide No. 262 (scFv, V domains shown)
# VH: QVQLVQSGAEVKKPGASVKVSCKASGFTFSDYGYYMHWVRQAPGQGLEWMGWMDPSSGHTGYAQRFQGRVTMTRDTSTSTVYMELSSLRSEDTAVYYCAKDIGWGAFDIWGQGTTVTVSS
# VL: B3 VL with G25A, S28R, I29V, S30G, G31N, N32T, T52V, A57S, N93L, Y95P
# notes: scFv
# B5: Polypeptide No. 238 (scFv, V domains shown)
# VH: QVQLVQSGAEVKKPGASVKVSCKASGYTFTIYYMHWVRQAPGQGLEWMGIINPSGGSTVYAQTFQGRVTMTRDTSTSTVYMELSSLRSEDTAVYYCARGIGSKGAFDIWGQGTMVTVSS
# VL: not shown
# notes: scFv
# B6: Polypeptide No. 291 (scFv, V domains shown)
# VH: B5 VH with I31S
# VL: not shown
# notes: scFv
# B7: Polypeptide No. 241 (scFv, V domains shown)
# VH: QVQLVQSGAEVKKPGASVKVSCKASGYTFTRHYVHWVRQAPGQGLEWMGIINPSGGSTSYAQKFQGRVTMTRDTSTSTVYMELSSLRSEDTAVYYCARSYHHYYYGMDVWGQGTTVTVSS
# VL: DIQMTQSPSSLSASVGDRVTITCRASQSISNYLAWYQQKPGKAPKLLIYAASSLQGGVPSRFSGSGSGTDFTLTISSLQPEDFATYYCQQSYSTPWTFGQGTKVEIKR
# notes: scFv
# B8: Polypeptide No. 248 (scFv, V domains shown)
# VH: QVQLVQSGAEVKKPGASVKVSCKASGYTFTGYYMHWVRQAPGQGLEWMGVINPNGGSISYAQKFQGRVTMTRDTSTSTVYMELSSLRSEDTAVYYCAREGWFGEDGMDVWGQGTTVTVSS
# VL: B7 VL with S28D, I29L, S30D, N31R, G56T, S91Y, W96Y, V104L
# notes: scFv
# B9: Polypeptide No. 257 (scFv, V domains shown)
# VH: B7 VH with R31N, H32Y, Y33F, V34M, S99A, Y100H, H101T, H102V, T115M
# VL: B7 VL with N31S, Y32W, S53T, G56S, V104L
# notes: scFv
# B10: Polypeptide No. 244 (scFv, V domains shown)
# VH: QVQLVQSGAEVKKPGASVKVSCKASGYTFTSYYMHWVRQAPGQGLEWMGRINPSGGSTSYAQSFQGRVTMTRDTSTSTVYMELSSLRSEDTAVYYCARVPGLYGGAIDYWGQGTLVTVSS
# VL: B7 VL with S28D, S30R, Y32D, A34G, G56S, T94S, W96F
# notes: scFv
# B11: Polypeptide No. 260 (scFv, V domains shown)
# VH: QVQLVQSGAEVKKPGASVKVSCKASGYTFTNYYVHWVRQAPGQGLEWMGMINPSGGSTNYAQKFQGRVTMTRDTSTSTVYMELSSLRSEDTAVYYCARVSGWKRGWFDPWGQGTLVTVSS
# VL: DIQMTQSPSSLSASVGDRVTITCRSSQSISTYLNWYQQKPGKAPKLLIYGASNLQSGVPSRFSGSGSGTDFTLTISSLQPEDFATYYCQQVISYPITFGGGTKVEIKR
# notes: scFv
# B12: Polypeptide No. 253 (scFv, V domains shown)
# VH: QVQLVQSGAEVKKPGSSVKVSCKASGYTFTTYFMHWVRQAPGQGLEWMGGIVPVFGTTKYAQKFQGRVTITADESTSTAYMELSSLRSEDTAVYYCASSAVGWFDPWGQGTLVTVSS
# VL: DIQMTQSPSSLSASVGDRVTITCRASQDISRWLAWYQQKPGKAPKLLIYAASSLQSGVPSRFSGSGSGTDFTLTISSLQPEDFATYYCQQYDNFPLTFGGGTKLEIKR
# notes: scFv
# B13: Polypeptide No. 256 (scFv, V domains shown)
# VH: QVQLVQSGAEVKKPGASVKVSCKASGYTFATYYLHWVRQAPGQGLEWMGMINPSGGSTIYAQKFQGRVTMTRDTSTSTVYMELSSLRSEDTAVYYCARSSGYDFFDYWGQGTLVTVSS
# VL: DIQMTQSPSSLSASVGDRVTITCRASHDINNYLNWYQQKPGKAPKLLIYDASNLETGVPSRFSGSGSGTDFTLTISSLQPEDFATYYCQQADSFPLTFGGGTKVEIKR
# notes: scFv
# B14: Polypeptide No. 259 (scFv, V domains shown)
# VH: QVQLVQSGAEVKKPGSSVKVSCKASGYTFTSSEINWVRQAPGQGLEWMGGIHPMFGTTNYAQKFQGRVTITADESTSTAYMELSSLRSEDTAVYYCARARLMVYAPSDYWGQGTLVTVSS
# VL: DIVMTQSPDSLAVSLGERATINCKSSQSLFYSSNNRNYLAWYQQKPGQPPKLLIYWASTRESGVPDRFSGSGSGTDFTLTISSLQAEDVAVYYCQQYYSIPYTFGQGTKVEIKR
# notes: scFv
# B15: Polypeptide No. 240 (scFv, V domains shown)
# VH: QVQLVQSGAEVKKPGASVKVSCKASGYTFTSYYMHWVRQAPGQGLEWMGIINPSSGSTTYALKFQGRVTMTRDTSTSTVYMELSSLRSEDTAVYYCARGLGKSAIDYWGQGTLVTVSS
# VL: not shown
# notes: scFv
# B16: Polypeptide No. 254 (scFv, V domains shown)
# VH: QVQLVQSGAEVKKPGASVKVSCKASGYTFTSHYMHWVRQAPGQGLEWMGWISPYNGNTNYAQKLQGRVTMTRDTSTSTVYMELSSLRSEDTAVYYCARGESNSGWINFDYWGQGTLVTVSS
# VL: EIVMTQSPATLSVSPGERATLSCRASQSVSSSSLAWYQQKPGQAPRLLIYDTSTRATGIPARFSGSGSGTEFTLTISSLQSEDFAVYYCQQYGTSPITFGQGTRLEIKR
# notes: scFv
# B17: Polypeptide No. 242 (scFv, V domains shown)
# VH: QVQLVQSGAEVKKPGSSVKVSCKASGGTFSSATISWVRQAPGQGLEWMGGIIPMFGTANYAQKFQGRVTITADESTSTAYMELSSLRSEDTAVYYCARDAYGDSTWGQGTLVTVSS
# VL: EIVMTQSPATLSVSPGERATLSCRASESVSSALAWYQQKPGQAPRLLIYGASTRATGIPARFSGSGSGTEFTLTISSLQSEDFAVYYCQQYGNSVTFGGGTKVEIKR
# notes: scFv
# B18: Polypeptide No. 246 (scFv, V domains shown)
# VH: QVQLVQSGAEVKKPGSSVKVSCKASGGTFTSYFMHWVRQAPGQGLEWMGGIIPMFGAPVYAQDFQGRVTITADESTSTAYMELSSLRSEDTAVYYCAAGLDFWSGPDNYYMDVWGKGTTVTVSS
# VL: DIQMTQSPSSLSASVGDRVTITCQATQDISNYLNWYQQKPGKAPKLLIYGASNLPSGVPSRFSGSGSGTDFTLTISSLQPEDFATYYCQQSYSDLLTFGPGTKVDIKR
# notes: scFv
# B19: Polypeptide No. 249 (scFv, V domains shown)
# VH: QVQLVQSGAEVKKPGASVKVSCKASGYTFTSDGISWVRQAPGQGLEWMGWMNPNSGNAGYAQKFQGRVTMTRDTSTSTVYMELSSLRSEDTAVYYCATAVAGTDAFDIWGQGTMVTVSS
# VL: EIVMTQSPATLSVSPGERATLSCRASQSIGNNLKAWYQQKPGQAPRLLIYDTSAHTTGIPARFSGSGSGTEFTLTISSLQSEDFAVYYCQHYGNSLTFGQGTKVEIK
# notes: scFv
# Biological target: T1, huFLT3-T227 stably expressed on Ramos cells (human, UniProt P36888 27-993)
# T1 construct: whole, on cells; also called FLT3 WT
# Assay: FACS on cells
row,FACS geometric mean fold change over Jurkat parental [fold],Binder
1,2 to 10,B1
2,10 to 30,B2
3,2 to 10,B3
4,10 to 30,B4
5,> 30,B5
6,> 30,B6
7,10 to 30,B7
8,2 to 10,B8
9,10 to 30,B9
10,> 30,B10
11,> 30,B11
12,2 to 10,B12
13,> 30,B13
14,10 to 30,B14
15,> 30,B15
16,10 to 30,B16
17,> 30,B17
18,10 to 30,B18
19,2 to 10,B19

# Biological target: T2, huFLT3-M227 stably expressed on Ramos cells (human, UniProt P36888 27-993)
# T2 construct: whole, on cells; also called FLT3 Mutant
# Assay: FACS on cells
row,FACS geometric mean fold change over Jurkat parental [fold],Binder
1,2 to 10,B1
2,10 to 30,B2
3,2 to 10,B3
4,10 to 30,B4
5,> 30,B5
6,> 30,B6
7,10 to 30,B7
8,2 to 10,B8
9,10 to 30,B9
10,> 30,B10
11,> 30,B11
12,2 to 10,B12
13,> 30,B13
14,10 to 30,B14
15,> 30,B15
16,2 to 10,B16
17,> 30,B17
18,2 to 10,B18
19,2 to 10,B19
